Measurements: the domain aggregation screens of Martell et al. (2025)

experiment: soluble fraction after stress (log2 fold change); higher = more stays soluble; pooled small domains, quantitative proteomics; details: stress: 75 degC
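Also: 20 min heating vs room temperature control held 20 min.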

| Sequence | soluble fraction (log2) |
| --- | --- |
| HMLSVNREQVEQSLKQEWGFDYDKNLRAAQRAIDVYGDDDLKLLLNGPTGNDPAIVKLFARLGGEVTEE | 0.132 |
| HMLSYIELTVDNTSKASYIMTDKMKINNFKIIGNNTIRVYENKVSPQDISRTLSMNNVSIEALGRKS | -1.29 |
| HMLSYNINEESKSSIMNVNVLKNNFASIDVEKLQNIIFTTFKKYNYYLNDFSSMNLLLHLLIIVDREL | 0.418 |
| HMLTEKEEEVMQILWDNGPLFVREILEFYPDPKPHYNTVSTVIRVLEEKNFASHKAYGNTYQYFP | 0.315 |
| HMLTLEDMTRINSIISPRIKKGQSLYHIAKNNGDELNISESTLRRLVMTGEMDAGIIDLPQAVK | -0.00636 |
| HMLTLTNREKQVLVYIAKGHQVAQIAYELKLSGHTINGYIKTIYQKLHISSRAEAALLAQQYGL | -3.31 |
| HMLTRQNFHGIKLPTIHEYIDLLNSRVNANIDKTNNWQSSVSHLRTYLNSHNINAVSKESINNYIDERLN | -1.4 |
| HMLTRRQSEVLDFIRQFAESESMPPTLHEIAKGMGFSSDNAARDHVRALARKGAIDLVGGTSRGIRLR | -1.22 |
| HMLTRSASREELDQLLKRLRQNLKQKNFFWPPDKEKSLVLYLENLFSKFPLNSSDIRFLHGIIRTLSEK | -0.188 |
| HMLVGKSVIMKTNESSSGMIAGKVNYWENIDGKIYLGINGKLYDIADVDTVLDNDYYDKLVN | -0.516 |
| HMLVKKYTEEETGRQAELSKQLAELSKAYYNTGNSMVDDAVFDKLRDELSSLEKESGFAYDISPNVS | -0.69 |
| HMLVNNSTIETVIDFANVKFGMELTKDQVSEQLRNLSFSQTLKLINSMKADDNDAFSEIIDL | -0.593 |
| HMLVSFGDHLKRYIYERAGIEEPFGEVPQEIYRDIAVDSFRETYTPKSMNPTSTKLPALVNNWLIQ | -0.843 |
| HMLVSVSNYLGQNVDTVKSDLEALGLVVKLKEQQTDRESENGAVLEQSIEGGSKVSAGTPITLTYGK | 0.945 |
| HMLWTHIALPVRSLDDTMAFYDKYTTLENIHERQDPETNMRSVWLANPGDKTEQAARFVLVLI | -0.119 |
| HMMTDAEKTFIFFSHLSSVEDHIAYGDKQFYMSLFWQHENKRELSSSQLYHLERLYNKYSMEEIEKKEEFS | -1.35 |
| HMMTDEEFLRIAGYMKQRYGIDLGQKKVIMNGRLENHIKSGGWSSFHAFMNDLEKDSSGKLEKELVNLLTT | -0.239 |
| HMMTLEESYKLLQVSHNASDIEITKAFKKLALLYHPDKNPSNIDWANKAMASINVAYNTIITHRFKEK | -1.38 |
| HMNAAYDEELDFIFSLSEKGKWEEAEAEIGLLLQKHPEDATLQRIGEWVTTQKILLRQQAVEDRIRS | -0.375 |

| Sequence | soluble fraction (log2) |
| --- | --- |
| HMNAEWMFDARKIPGLVMNYLRRIAVRAIEEKHYSPELVADLFGIDRTSIYDWLRKYRQQGEEALDTRKA | -1.28 |
| HMNAFEIYPNPASNLIRIDAEFTVAKIFSQTGNLIQTSTTKEIDVYNLANGIYFVKLDDSPSMVKFVIN | -0.795 |
| HMNALTEAESKLLERMNKAGIHAEITTKKAAGILQRSENGARTVLNSLVKKGYLTVETNKAPYIYHLH | -0.359 |
| HMNAMFEKVLAAVMGFIGVSAFAKNADGKSEMTSDQEKRLTDKWGSKFVEEFKNDLLEYEKNGNAAEDAV | -0.944 |
| HMNAPKKPLSAYFLFSQEERLKVKAENPDYSITEVAKELGKRWATLNPDIKTVYEQRYQDARRIYETEMNT | -0.372 |
| HMNAQLTTIPDLDGMNMRAATAMLSSLGLEVKRIGSGTVFAQFPKAGAAMRPGSMVTIRGKAKSL | -0.777 |
| HMNATLSSSYPTSVVTDGEIYKLTFGLNGKYNGQEQITVKPHGDSNIYDSGGLRAYQNTQSNNVVTLN | -0.0686 |
| HMNATQLSNTQKQIRTQLLERLSNNPLTVKQLADRMFVPIDTILKEITALIQEQKIIEDKGGKLQIN | -0.135 |
| HMNAVDLLSPQEQRIFELIGEGMSNRQIADVMYLAEKTVKNYVSNVLMKLGMERRTEAAALAARLDERQK | -0.179 |
| HMNAVITTQKAKQIALAHAGLSEADVNYVKAELENDDGVQVYDIEFYSKNIEYDYDINAVTGEIMSFDHDI | -0.251 |
| HMNAVYPNPFVSEIYIGENNRSVEIYNLNGGLVYGMSQPSSRIDVSGLAAGSYILIKKDSSGHISSHKIMK | -1.63 |
| HMNDAARQTTDILQHVRSSGSISFRDLWRLFMPFMAYRDFDAAVKSLVAAGHIATTENERKELHLIAF | -1.14 |
| HMNDEFYAVVRESYAGYALVKPLDEDVGYDILSVSVKNLKVGDIIRLKVKNIKEIYPPEAEVLEVEVLQ | -0.316 |
| HMNDEQFAIAKNDLLLSLYDGKEVNNSAAEYIIAWESLEKSPSDYISSQLKNTAESIIKISFD | 0.258 |
| HMNDFVTVPDLQGIFYSEAIKKIDKMGLKEGSIQFVNQDKFLPNTVLNQNPKEGTKVSQDSPINLIIS | -0.012 |
| HMNDILETISNQIRDLRVSKKITQQELAERTNLSVPYISQIENGHRNISLETFIKIVDALDIPLSDFFLP | -1.95 |
| HMNDITVNVEDSKLIVTSNNPEKLPLYIMDIQGHILDKSEITAGTYSFPISDRGTYIVRIGENVYKVI | -0.166 |
| HMNDLKVGELAKRGNVTAETVRHYTREGLLSPTRHPDNGYQLFSATDLERLHFIQRARKLGFSVAEIRDIL | -0.915 |
| HMNDLVTWDRYKIELGDTLSEIAQKLVTRVDILKTVNQIQGTRIIAGNSLMVPRTTDTNVLTYL | 0.00348 |
